This note sets out measurements from patent publication US20110015138A1 (GENUS ONCOLOGY, published 2011).

The target in assay [1] is T1, GST-STAT3 (N-terminal; amino acids 1-257) (UniProt P40763 1-257).
T1 construct: range 1-257; The legend names it GST-MUC1-CD, but the text and the end of the legend speak of STAT3 deletion mutants / GST-STAT3 fusion proteins; also called dimerization domain; printed in the legend as GST-MUC1-CD (N-terminal: amino acids 1-257); not shown: glutathione S-transferase (GST) fusion moiety
Nature of the assay: GST-STAT3 deletion mutants on glutathione beads incubated with purified MUC1-CD, immunoblot anti-MUC1-C. As for the experimental part:
(§1) FIGS. 9A-D: MUC1-C binds directly to the STAT3 DBD. (FIG. 9A) Lysates from ZR-75-1 (left) and MCF-7 (right) cells were subjected to immunoprecipitation with anti-STAT3 or a control IgG. The precipitates were immunoblotted with the indicated antibodies. (FIG. 9B) Lysates from ZR-75-1 cells were incubated with GST and GST-MUC1-CD bound to glutathione beads. The adsorbates were immunoblotted with anti-STAT3 Input of the GST and GST-MUC1-CD proteins was assessed by Coomassie blue staining. (FIG. 9C) Amino acid sequence of the MUC1 cytoplasmic domain is shown with the indicated phosphorylation and binding sites. GST, GST-MUC1-CD, GST-MUC1-CD (1-45) and GST-MUC1-CD (46-72) bound to glutathione beads were incubated with purified recombinant STAT3. The adsorbates were immunoblotted with anti-STAT3. Input of the GST and GST-MUC1-CD fusion proteins was assessed by Coomassie blue staining. (FIG. 9D) Structure of STAT3. GST, GST-STAT3 (full length; amino acids 1-770), […], […] and […] bound to glutathione beads were incubated with purified MUC1-CD. Adsorbates were immunoblotted with anti-MUC1-C. Input of the GST and GST-STAT3 fusion proteins was assessed by Coomassie blue staining.
(§2) MUC1-C directly interacts with STAT3. […]

Assay [2] has as its target T2, GST-STAT3 (C-terminal; amino acids 514-770) (UniProt P40763 514-770).
T2 construct: range 514-770; The legend names it GST-MUC1-CD, but the text and the end of the legend speak of STAT3 deletion mutants / GST-STAT3 fusion proteins; also called printed in the legend as GST-MUC1-CD (C-terminal); not shown: glutathione S-transferase (GST) fusion moiety
The assay is described as above. As to the method:
as §1, §2

Assay [3] addresses T3, GST-IκBα (UniProt P25963 1-317).
T3 construct: Bought (Millipore, Billerica, Mass.); not shown: glutathione S-transferase (GST) fusion moiety
T3 sequence (looked up): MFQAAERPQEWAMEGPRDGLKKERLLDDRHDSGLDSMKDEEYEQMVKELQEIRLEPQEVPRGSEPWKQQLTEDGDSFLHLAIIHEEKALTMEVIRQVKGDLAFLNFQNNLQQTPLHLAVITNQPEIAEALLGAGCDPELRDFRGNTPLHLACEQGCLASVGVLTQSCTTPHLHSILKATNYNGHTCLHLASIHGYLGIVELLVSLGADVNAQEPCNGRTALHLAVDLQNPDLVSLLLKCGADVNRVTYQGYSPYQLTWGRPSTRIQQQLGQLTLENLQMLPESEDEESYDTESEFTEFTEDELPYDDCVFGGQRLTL
Nature of the assay: GST pull-down of purified p65(1-180), immunoblot anti-p65. In general terms: In western blotting, separated proteins are transferred to a membrane and probed.

The target of assay [4] is T4, purified recombinant NF-κB p65 (UniProt Q04206 1-551, limits assumed).
T4 construct: also called purified NF-κB p65
Nature of the assay: GST pull-down of purified recombinant p65, immunoblot anti-p65.

Assay [5] addresses purified recombinant STAT3 (UniProt P40763 1-770, limits assumed). Nature of the assay: GST pull-down of purified recombinant STAT3, immunoblot anti-STAT3. As for the experimental part: as §1, §2
The target in assay [6] is T5, STAT3 (in cells / cell lysates) (human, UniProt P40763 2-770).
T5 construct: Endogenous protein of the cell lines
Nature of the assay: co-immunoprecipitation with anti-STAT3 from ZR-75-1 and MCF-7 cell lysates, immunoblot anti-MUC1-C. As to the method:
as §1, §2

Assay [7] has as its target T6, NF-κB p65 (in cells / cell lysates) (human, UniProt Q04206 1-551).
T6 construct: Endogenous protein of the cell lines
Nature of the assay: co-immunoprecipitation with anti-p65 from ZR-75-1, MCF-7 and U-937/MUC1-C cell lysates, immunoblot anti-MUC1-C. As to the method: Immunoprecipitation and immunoblotting. Lysates from sub-confluent cells were prepared as described (Ren et al., 2004). Soluble proteins were precipitated with anti-NF-κB p65 (Santa Cruz Biotechnology, Santa Cruz, Calif.). […] Immune complexes were detected with horseradish peroxidase-conjugated secondary antibodies (GE Healthcare Biosciences, Piscataway, N.J.) and enhanced chemiluminescence (GE Healthcare).
MUC1-C associates with NF-κB p65. To determine whether MUC1 interacts with NF-κB, anti-NF-κB p65 precipitates from ZR-75-1 breast cancer cells were immunoblotted with an antibody against the MUC1-C subunit cytoplasmic domain. […] Similar findings were obtained with lysates from MCF-7 breast cancer cells, which also overexpress endogenous MUC1 (FIG. 1B). To determine whether the MUC1-N subunit is necessary for the association, studies were performed on U-937 cells that stably express exogenous MUC1-C and not MUC1-N (Agata et al., 2008).

Ends that are not written are not given here.

T2 sequence (P40763 514-770): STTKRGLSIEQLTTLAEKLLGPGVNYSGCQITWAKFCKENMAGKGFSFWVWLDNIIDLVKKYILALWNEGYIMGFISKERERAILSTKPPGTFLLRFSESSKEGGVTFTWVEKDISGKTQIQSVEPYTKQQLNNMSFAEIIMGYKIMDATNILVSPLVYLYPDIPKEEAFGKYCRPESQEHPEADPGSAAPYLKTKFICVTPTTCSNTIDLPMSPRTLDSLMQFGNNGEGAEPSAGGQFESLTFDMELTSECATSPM
T1 sequence (P40763 1-257): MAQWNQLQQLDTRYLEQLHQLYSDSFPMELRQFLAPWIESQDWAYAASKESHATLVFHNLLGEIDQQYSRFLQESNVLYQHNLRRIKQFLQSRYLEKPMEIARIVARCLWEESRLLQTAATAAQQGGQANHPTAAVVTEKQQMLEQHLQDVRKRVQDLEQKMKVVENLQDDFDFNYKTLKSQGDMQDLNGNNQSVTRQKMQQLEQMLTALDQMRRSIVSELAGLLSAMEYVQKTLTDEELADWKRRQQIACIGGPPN
Sequence of purified recombinant STAT3 (P40763 whole entry): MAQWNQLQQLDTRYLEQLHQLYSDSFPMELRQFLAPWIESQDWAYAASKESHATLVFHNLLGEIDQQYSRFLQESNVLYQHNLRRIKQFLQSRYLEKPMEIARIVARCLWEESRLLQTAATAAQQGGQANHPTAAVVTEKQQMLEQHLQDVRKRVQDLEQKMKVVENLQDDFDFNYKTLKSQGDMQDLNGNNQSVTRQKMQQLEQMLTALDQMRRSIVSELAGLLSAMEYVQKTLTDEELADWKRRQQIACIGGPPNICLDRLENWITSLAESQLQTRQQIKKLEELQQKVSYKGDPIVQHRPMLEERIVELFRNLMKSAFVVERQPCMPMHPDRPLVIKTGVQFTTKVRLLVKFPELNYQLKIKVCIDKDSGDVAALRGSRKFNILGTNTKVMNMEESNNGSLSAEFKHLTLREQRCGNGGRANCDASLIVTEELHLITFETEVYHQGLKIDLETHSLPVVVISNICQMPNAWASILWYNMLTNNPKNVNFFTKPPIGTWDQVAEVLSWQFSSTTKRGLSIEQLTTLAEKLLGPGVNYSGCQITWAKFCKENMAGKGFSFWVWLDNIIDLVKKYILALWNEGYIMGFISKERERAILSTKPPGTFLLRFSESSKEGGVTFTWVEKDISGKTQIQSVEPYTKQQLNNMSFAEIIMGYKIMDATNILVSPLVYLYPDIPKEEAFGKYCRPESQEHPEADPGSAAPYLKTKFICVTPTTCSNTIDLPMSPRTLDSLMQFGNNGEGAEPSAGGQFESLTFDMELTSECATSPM
T5 sequence (P40763 2-770 limits assumed): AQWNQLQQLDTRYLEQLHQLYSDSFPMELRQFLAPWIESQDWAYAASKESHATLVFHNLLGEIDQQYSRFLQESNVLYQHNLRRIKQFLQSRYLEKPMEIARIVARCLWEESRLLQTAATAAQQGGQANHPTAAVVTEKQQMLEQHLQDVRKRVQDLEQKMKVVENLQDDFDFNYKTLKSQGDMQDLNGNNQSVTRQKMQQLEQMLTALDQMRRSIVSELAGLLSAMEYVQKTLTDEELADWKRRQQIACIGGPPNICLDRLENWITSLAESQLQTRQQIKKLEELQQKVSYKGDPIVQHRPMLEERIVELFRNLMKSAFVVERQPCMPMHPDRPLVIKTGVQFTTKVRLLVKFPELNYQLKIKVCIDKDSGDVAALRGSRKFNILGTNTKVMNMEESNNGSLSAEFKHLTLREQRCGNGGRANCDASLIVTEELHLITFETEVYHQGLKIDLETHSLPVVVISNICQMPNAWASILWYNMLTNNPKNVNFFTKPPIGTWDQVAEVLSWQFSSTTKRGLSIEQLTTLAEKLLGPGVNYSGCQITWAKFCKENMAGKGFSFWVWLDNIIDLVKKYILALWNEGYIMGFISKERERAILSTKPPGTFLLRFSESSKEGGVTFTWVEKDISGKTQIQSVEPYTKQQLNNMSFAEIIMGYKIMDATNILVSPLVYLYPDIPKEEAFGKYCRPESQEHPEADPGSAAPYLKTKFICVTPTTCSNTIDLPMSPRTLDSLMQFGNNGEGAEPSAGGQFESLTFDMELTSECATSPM

B1: MUC1-CD (purified, GST moiety removed with thrombin) (other)
chain: CQCRRKNYGQLDIFPARDTYHPMSEYPTYHTHGRYVPPSSTDRSPYEKVSAGNGGSSLSYTNPAVAATSANL
notes: also called purified MUC1-CD; MUC1-C cytoplasmic domain
With B1, the binding result in assay [1] and in assay [2] was “no binding” throughout.

B2: p65(1-180) (other, UniProt Q04206 1-180, looked up)
chain: MDELFPLIFPAEPAQASGPYVEIIEQPKQRGMRFRYKCEGRSAGSIPGERSTDTTKTHPTIKINGYTGPGTVRISLVTKDPPHRPHPHELVGKDCRDGFYEAELCPDRCIHSFQNLGIQCVKKRDLEQAISQRIQTNNNPFQVPIEEQRGDYDLNAVRLCFQVTVRDPSGRPLRLPPVLS
notes: range 1-180; Purified deletion mutant; also called purified p65(1-180)
For B2, the binding result in assay [3] is listed as “no binding”.

B3: GST-MUC1-CD(1-45) (other)
chain: CQCRRKNYGQLDIFPARDTYHPMSEYPTYHTHGRYVPPSSTDRSP
modifications: cysteine pairing not given here; also: GST fusion
notes: Deletion mutant of GST-MUC1-CD; residues counted on the 72 amino acid cytoplasmic domain; not shown: glutathione S-transferase (GST) fusion moiety
With B3, the binding result in assay [4] and in assay [5] was “no binding” in each case.

B4: MUC1 C-terminal subunit (MUC1-C), in cells (receptor)
chain: SVVVQLTLAFREGTINVHDVETQFNQYKTEAASRYNLTISDVSVSDVPFPFSAQSGAGVPGWGIALLVLVCVLVALAIVYLIALAVCQCRRKNYGQLDIFPARDTYHPMSEYPTYHTHGRYVPPSSTDRSPYEKVSAGNGGSSLSYTNPAVAATSANL
notes: Endogenous MUC1-C in lysates of ZR-75-1, MCF-7 and MCF-10A cells, or exogenous MUC1-C in U-937 cells and exogenous MUC1 in HeLa cells
In the case of B4, the binding result in assay [6] and in assay [7] was “binds” each time.
